Assay results published in PMC13147315.

How the values were obtained:
[1] = target: T1, N_WT (nucleocapsid, Wuhan) (SARS-CoV-2 (Wuhan), UniProt P0DTC9 1-419); assay: EMSA; 15-500 nM N; settings: protein: recombinant; tags: 6xHis; chain copies: 2; label: Cy5 on RNA2; 3' overhang 11 nt on strand 1
[2] = target: T1, N_WT (nucleocapsid, Wuhan); assay: EMSA; full binding at about 500 nM N; settings: protein: recombinant; tags: 6xHis; chain copies: 2
[3] = target: N_CTD (SARS-CoV-2 (Wuhan), UniProt P0DTC9 247-364); assay: MST; settings: protein: recombinant, tags: 6xHis, chain copies: 2
[4] = target: T1, N_WT (nucleocapsid, Wuhan); assay: MST; settings: protein: recombinant, tags: 6xHis, chain copies: 2
[5] = label: Cy5 (Methods EMSA: Cy3), blunt

B1: hybridized RNA2 (RNA2-Cy5/RNA7) (dsRNA)
RNA 1: CUGCACCUCAUGGUCAUGUUAUGGUU
RNA 2: GACCAUGAGGUGCAG
- binding result [1]: binds

B2: DNA of Fig. S2F (mixed)
DNA 1: TTTCGGCCTCATCAGGTCATCGCTTTAGTGAGGGTTAATAAA
DNA 2: TTATTAACCCTCACTAAA
- binding result [2]: binds

Binder: AACCAUAACAUGACCAUGAGGUGCAG (ssRNA) [ssRNA3]
- Kd ([3]; label: Cy5 (Methods EMSA: Cy3)): 4290 ± 427 nM
- Kd ([4]; label: Cy5 (Methods EMSA: Cy3)): 1260 ± 722 nM

B3: dsRNA22 (dsRNA)
RNA 1: CAUAAUAAGAGGCUGGAUUUUUGGUA
RNA 2: UACCAAAAAUCCAGCCUCUUAUUAUG
- Kd ([3]; label: Cy5, blunt): 1840 ± 252 nM
- Kd ([4]; label: Cy5, blunt): 344 ± 132 nM

Binder: CAUAAUAAGAGGCUGGAUUUUUGGUA (ssRNA) [ssRNA22]
- Kd ([3]; label: Cy5): 2730 ± 588 nM
- Kd ([4]; label: Cy5): 291 ± 121 nM

B4: dsRNA20 (dsRNA)
RNA 1: UUCGUCCGGGUGUGACCGAAAGGUAA
RNA 2: UUACCUUUCGGUCACACCCGGACGAA
- Kd ([3]; label: Cy5, blunt): 3300 ± 394 nM
- Kd ([4]; label: Cy5, blunt): 398 ± 157 nM

Binder: UUCGUCCGGGUGUGACCGAAAGGUAA (ssRNA) [ssRNA20]
- Kd ([3]; label: Cy5): 8540 ± 4510 nM
- Kd ([4]; label: Cy5): 425 ± 186 nM

B5: dsRNA3 (dsRNA)
RNA 1: AACCAUAACAUGACCAUGAGGUGCAG
RNA 2: CUGCACCUCAUGGUCAUGUUAUGGUU
- Kd [3, 5]: 2550 ± 567 nM
- Kd [4, 5]: 647 ± 151 nM
